Reference: publication PMC9779223, “Impact of Troponin in Cardiomyopathy Development Caused by Mutations in Tropomyosin” (International Journal of Molecular Sciences, 2022)

Molecular target: T1, Tropomyosin C-terminal fragment Tpm WT 134–284 (human, UniProt P09493 134-284)
T1 construct: also called Tpm C-end; source: E. coli C41 (DE3), purified (anion exchange, HiTrap Q HP)
Assay: ITC; MicroCal PEAQ-ITC, 25 °C; 30 mM HEPES-Na pH 7.3, 100 mM NaCl, 1 mM DTT; sample in the cell 30 to 60 µM, ligand in the syringe 200 to 700 µM; one set of binding sites
Conditions: both partners purified

T1 sequence (P09493 134-284): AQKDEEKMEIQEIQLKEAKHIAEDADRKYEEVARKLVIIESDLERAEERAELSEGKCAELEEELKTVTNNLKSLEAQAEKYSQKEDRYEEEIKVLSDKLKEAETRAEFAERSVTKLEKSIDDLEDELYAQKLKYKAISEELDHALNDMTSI

B1: Tropomyosin N-terminal fragment Tpm WT 1–133 (domain or fragment)
chain: not shown
notes: human tropomyosin Tpm1.1 (alpha-Tpm), residues 1-133 (ends at the trypsin site Arg133); Made from the full Tpm1.1 construct by primers that put a stop after Arg133; also called Tpm_(1–133); Tpm N-end; source: E. coli C41 (DE3), purified (anion exchange, HiTrap Q HP)
Kd: 10.2 ± 0.3 µM
dH: 1.95 ± 0.15 kcal/mol
stoichiometry N: 1.17 ± 0.05
